In US20070212700A1, “Methods of using and analyzing biological sequence data” (THE BOARD OF REGENTS OF THE UNIVERSITY OF TEXAS SYSTEM, priority 2005, published 2007):

Molecular target: PPxY-containing peptide
Experiment: isothermal titration calorimetry, ratio of equilibrium dissociation constants (mutant vs wild-type Nedd4.3 WW domain)

- fold effect on peptide binding relative to wild-type: 5.15 fold
Substance: Nedd4.3 WW domain L3A mutant (from UniProt Q62940 459-492)
